Measurements from the supplement of paper PMC9170038.

Columns and labels:
MS2 coat protein [1] = assay: apparent KD of MS2 coat protein; designed switch direction (-1 OFF switch, 1 ON switch): 1; higher = weaker reporter binding
Outline: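 Transcription of designed RNA switches on Illumina chips was done by stalled E. coli RNA polymerase. SNAP-549-labelled MS2 coat protein was then titrated in doubling steps from 0.7 or 1.5 nM to 3 µM, with steps of 0.8–1.5 h at the lowest and 10–20 min at the highest concentration. The per-design median over clusters of curve-fitted normalised fluorescence is reported as apparent KD.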

MS2 coat protein [2] = assay: apparent KD of MS2 coat protein; higher = weaker reporter binding; conditions: Eterna round: R107
Outline: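 Designed RNA switches were made by on-chip transcription from Illumina sequencing clusters and then titrated with SNAP-549-labelled MS2 coat protein. Twofold steps ran from 0.7 or 1.5 nM to 3 µM, each lasting 0.8–1.5 h early and 10–20 min late, in 100 mM Tris-HCl pH 7.5, 80 mM KCl, 4 mM MgCl2, without or with constant ligand. Apparent KD is the per-design median of normalised cluster binding-curve fits.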

[3] = input ligand: microRNA oligo, concentration not stated
[4] = Eterna round: R95, input ligand: FMN 200 uM
[5] = Eterna round: R95, input ligand: microRNA oligo, concentration not stated
[6] = Eterna round: R95, input ligand: none
[7] = input ligand: theophylline 20 uM
[8] = input ligand: theophylline 2 mM
[9] = input ligand: tryptophan 2.4 mM

Sequence	apparent KD of MS2 coat protein (MS2 coat protein [1]; input ligand: FMN 200 uM) [nM]	apparent KD of MS2 coat protein (MS2 coat protein [1]; [3]) [nM]	apparent KD of MS2 coat protein (MS2 coat protein [1]; input ligand: none) [nM]	apparent KD of MS2 coat protein (MS2 coat protein [1]; [4]) [nM]	apparent KD of MS2 coat protein (MS2 coat protein [1]; [5]) [nM]	apparent KD of MS2 coat protein (MS2 coat protein [1]; [6]) [nM]	apparent KD of MS2 coat protein (MS2 coat protein [2]; input ligand: arginine 13.2 mM) [nM]	apparent KD of MS2 coat protein (MS2 coat protein [2]; [7]) [nM]	apparent KD of MS2 coat protein (MS2 coat protein [2]; [8]) [nM]	apparent KD of MS2 coat protein (MS2 coat protein [2]; [9]) [nM]	apparent KD of MS2 coat protein (MS2 coat protein [2]; input ligand: none) [nM]
AAAAGAAACAUGUACCUGAGUACAUGAAAACAUGAGGAUCACCCAUGUAACAAGCUGGGUGCUCGUCUUAUAAGAAA [JL pocket 1] (Eterna round: R96, puzzle: Sensor for hsa-mir-208a)	137	22.3	77.7	–	–	–	–	–	–	–	–
AAAAGAAACAUGUACCUGAGUACAUGAAAACAUGAGGAUCACCCAUGUAACAAGUUGGGUGCUUGUCUUAUAAGAAA [JL pocket 4] (Eterna round: R96, puzzle: Sensor for hsa-mir-208a)	710	66.7	822	–	–	–	–	–	–	–	–
AAAAGACAUGAGGAUCACCCAUGUAACGGUCGUCAAGGAUAUGCAUAGGUCCAUUGACCAGCAGAAGGUGAUACCU [Xeanlarace] (puzzle: Same State 1)	–	–	–	400	56.6	38.3	–	–	–	–	–
AAAAUACAUGAGGAUCACCCAUGUAGAAACUACACAGGAUAUCGGACGGCUAUAACCGAACGAGAAGGGUGAACCC [Onorvea] (puzzle: Same State 1)	–	–	–	260	354	362	–	–	–	–	–
UGGACGCAACGAGCACGAGGUCGGCAGCUACGAGGACCGGUACGGCCGCCACUCGAGUUACGACAUGAGGAUCACCCAUGUAAGG [theeternabot_exclusion_MS2_Trp_A_45]	–	–	–	–	–	–	27.9	61.1	51.8	–	–
UGGUACAUGAGGAUCACCCAUGUUCCAGAUACCAGACUCCCGGUGGUCCCUUGGCAGCUGGUGGUACAUGAGGAUCACCCAUGUG [Exclusion Theophylline A GF17]	–	–	–	–	–	–	28.5	44.7	–	30.8	–
UGUAAUGUGGGAAGGAGCGCAUACUUCACAUGAGGAUCACCCAUGUCAAGACGUGAGUCAGUGCAGGUAGGUCGCCUAGUUUAGA [Same State - Arginine B (Freestyle 18)]	–	–	–	–	–	–	37.2	75.4	88.9	42	97
UGUACAUGAGGAUCACCCAUGUUACGCGAUACCAGACAUGAGAGUGUCCCUUGGCAGCGUGGAGCUGAUACGGCGGGAAGCCGGA [#10 SameState-TheophyllineA]	–	–	–	–	–	–	16.1	50.2	–	45.9	–
UGUAUGGACUGAAGGAGCGACUCAAAAUAACAUGAGGAUCACCCAUGUAAGGCGAAAGCCGGUCAGGUAGGUCGCAGUCCAUACU [ArgBX 3]	–	–	–	–	–	–	13.7	16.1	10.6	11.6	11.3
UGUAUGGACUGAAGGAGCGCCUCAAAAUAACUUGAGGAACACCCAAGUAAGGCGAAAGCCGGGCAGGUAGGUCGCAGUCCAUACU [ArgBX 3]	–	–	–	–	–	–	31	23	46.1	34.6	24.6
UGUAUGGACUGAAGGAGCGGAAAAUAAAUCUGAGGAUCACCCAGGUAAUAGGCGAAAGCCAUCCAGGUAGGUCGCAGUCCAUACU	–	–	–	–	–	–	56.9	101	133	105	86.7
UGUAUGGACUGAAGGAGCGGGAAAAUAACUUGAGGAUCACCCAGGUAAAAGGCGAAAGCCACCCAGGUAGGUCGCAGUCCAUACU	–	–	–	–	–	–	21.5	30.1	22.4	25.9	26.2
UGUAUGGACUGAAGGAGCGGGUUGAUAACCUGAGGAUCAUCCAGGUAAAAGGCGAAAGCCGCCCAGGUAGGUCGCAGUCCAUACU	–	–	–	–	–	–	174	227	280	237	158
UGUAUGGACUGAAGGAGCGGGUUGAUAAUCUGAGGAUCACCCAGGUAAAAGGCGAAAGCCGCCCAGGUAGGUCGCAGUCCAUACU	–	–	–	–	–	–	20.5	36.1	31.5	33.4	25.3
UGUAUGUGAUCUGAUACCAGUCCAACUGGUAAACCAUGAGGAUCACCCAUGGAAAAUUGGGACCCUUGGCAGCAGAUCGCAUACU	–	–	–	–	–	–	96.5	236	20.9	322	–
UGUAUGUGAUUUGAUACCAGACCAACUGGUAAUACAUGAGGAUCACCCAUGUAGAUUUGGGUCCCUUGGCAGCAAAUCGCAUACU [SSTheo B #23]	–	–	–	–	–	–	45.6	34.1	–	46.1	–
UGUAUGUGAUUUGAUACCAGACCAGCUGGUGGUACCUGAGGAACACCCAGGUAGGUUUGGGUCCCUUGGCAGCAAAUCGCAUACU [SS Theo B #24 Ms7]	–	–	–	–	–	–	36.2	34.4	21.4	33.3	–
UGUCCUCAUGCGGCCGCCACUGUCGGCCGCCACUAAACCUGAGGAUCACCCGGGUAGGACCGGGACAGGACCGGGCAUGGGUGCU [#DoubleAptamer 4 #AlternativeMS2]	–	–	–	–	–	–	47.4	486	686	111	315
UGUCGGCGAAAGUUGGCGUGUCUUGCUGGUCGAGGACCGGUACGGCCGCCACUCGAUCCUUCGCACAUGAGGAUCACCCAUGUUG [SS Tryp A #24]	–	–	–	–	–	–	25.8	49.1	34.8	–	–
